We go through one substance from US20170119925.

The subject of this series is T1, Gln-Pro-Gln-Gly-Leu-Ala-Lys (QPQGLAK) peptide crosslinker.
T1 sequence: QPQGLAK

Regarding “general collagenase from Clostridium histolyticum”, the kcat/Km (s^-1M^-1), digestion kinetics by HPLC turned out to be 32 s^-1M^-1.
